Assay results taken from the nanobody polyreactivity screen of Harvey et al. (2022).

Assay: yeast display, Sf9 membrane polyspecificity reagent, FACS + sequencing; frameworks hold sequencing errors
Outline: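 Using colony PCR, genes from sorted yeast display clones were amplified, then sequenced on MiSeq at 2 × 250 and filtered by CDR length. The clones had been stained with 10% biotinylated, detergent-solubilized Sf9 membrane reagent for 1 hour at 4 °C and sorted by FACS into low and high (top ~1%) gates on anti-HA and streptavidin fluorescence. Polyreactivity labels come from the gate of origin.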

Sequence | polyreactivity (PSR sort gate)
QVQLVESGGGLVQAGGSLRLSCAASGFTFAVYAMGWYRQAPGKERELVAAITTSGTRTYYADSVKGRFTISRDNAKNTVYLQMNSLKPEDTAVYYCAAVGFRQWPEFDYWGQGTQVTVSS | low polyreactivity
QVQLVESGGGLVQAGGSLRLSCAASGFTFAVYDMGWYRQAPGKERELVASITGDSTNYADSVKGRFTISRDNAKNTVYLQMNSLKPEDTAVYYCAAEYVPYYEYESWGQGTQVTVSS | low polyreactivity
QVQLVESGGGLVQAGGSLRLSCAASGFTFAWYTMGWYRQAPGKERELVAAITDSGDSTYYADSVKGRFTISRDNAKNTVYLQMNSLKPEDTAVYYCATRTWYWDIWITEYDYWGQGPQVTVSS | low polyreactivity
QVQLVESGGGLVQAGGSLRLSCAASGFTFAWYTMGWYRQEPGKESELVAAISWSGGSTYYADSVKGRFTISPDNANKTVYLQMNILKPEDTAVYYCAVTTGLTRYEYWGQGTQVTVSS | high polyreactivity
QVQLVESGGGLVQAGGSLRLSCAASGFTFAYNAMGWYRPAPGKERELVAAISGRGVSTYYADSVKGRFTISRDNAKNTVYLQMNSLKPEDTAVYYCAKRYRYWTTERYDYWGQGTQVTVSS | high polyreactivity
QVQLVESGGGLVQAGGSLRLSCAASGFTFAYNAMGWYRQAPGKERELVAAISSGGTRTYYADSVKGRFTISRDNAKYTVYLQLNSLNPEDTAVYYCASERVGWSGYRGDYLGQGTQVTVSS | high polyreactivity
QVQLVESGGGLVQAGGSLRLSCAASGFTFAYNAMGWYRQAPGKERELVAAISWSGGTTYYADSVKGRFTISRDNAKNTVYLQMNSLKPEDTAVYYCAKRGIGYATSWRGSDYWGQGTQVTVSS | high polyreactivity
QVQLVESGGGLVQAGGSLRLSCAASGFTFAYYAMGWDRQAPGKERELVAAINWSGTRTSYADSVKGRFTISRDNAKNTVYLQMNSLKPEDTAVYYCAADSSLRYDYWGQGTQVTVSS | high polyreactivity
QVQLVESGGGLVQAGGSLRLSCAASGFTFAYYAMGWYRQAPGKEWELVAAISRGGTSTYYADSVKGRFTISRDKAKNTVYLQMNTLKPEDTAVNYCNAGKVGYSLYDYCGQGTQVTVSS | high polyreactivity
QVQLVESGGGLVQAGGSLRLSCAASGFTFCRYAMGWYRQAPGKEREFVAGISSSGGSTYYADSVKGRFTISRDNAKNTVYLQMNSLKPEVTAVYYCNKARYFTGQRYDYWGQGTQVTVSS | high polyreactivity
QVQLVESGGGLVQAGGSLRLSCAASGFTFDANAMGWYRQAPGKERELVAAITRVGSTFYADSVKGRFTISRDNAKNTVYLQMNSLKPEDTAVYYCNAARDHVSGYDYWGQGTQVTVSS | low polyreactivity
QVQLVESGGGLVQAGGSLRLSCAASGFTFDAYTMGWYRQAPGKERELVAAINWSGDTTYYADSVKGRFTISRDNAKNTVYLQMNSLKPEDTAVYYCAAVWWIYGVWFDYWGQGTQVTVSS | high polyreactivity
QVQLVESGGGLVQAGGSLRLSCAASGFTFDENAMGWYRQAPGINYSGASTYYADSVKGRFTISRDNAKNTVYLQMNSVKPEDTAVYYCAAEVVAQMNYCGQGTQVTVSS | low polyreactivity
QVQLVESGGGLVQAGGSLRLSCAASGFTFDENAMGWYRQAPGINYSGASTYYADSVKGRFTISRDNAQNSVYLQMNSLKPEDTAVYYCAAEVVAQMNYWGQGTQVTVSS | low polyreactivity
QVQLVESGGGLVQAGGSLRLSCAASGFTFDENAMGWYRQAPGINYSGASTYYAVSVKGRFTIARDNAKNTVYLQMNSLKPEDTAVYYCAAEVLAQMNYWGQGTQVTVSS | low polyreactivity
QVQLVESGGGLVQAGGSLRLSCAASGFTFDFYAMGWYRQAPGKDRELVAAISRSGGRTYYADSVKGRFTISRDNAKNTVYLQMNSLKPEDTAVYYCAAVDIIPVRMEYWGQGTQVTVSS | high polyreactivity
QVQLVESGGGLVQAGGSLRLSCAASGFTFDFYAMGWYRQAPGKERELVAAISKNDGTTYYADSVKGRFTISRDNAKNTVYLQMNSLKPEDTAVYYCAADVELWVFRGQQYDYWGQGTQVTVSS | low polyreactivity
QVQLVESGGGLVQAGGSLRLSCAASGFTFDGYGMGWYRQAPGKERELVAVITSGGSTKYADSVKGRFTISRDNAKNTVYLQMNSLKPEDTAVYYCAADNRIRGVAFDYWGQGTKVTVSS | low polyreactivity
